Patent publication US20030003547

Biological target: T1, RecA (UniProt P0A7G6)
T1 sequence: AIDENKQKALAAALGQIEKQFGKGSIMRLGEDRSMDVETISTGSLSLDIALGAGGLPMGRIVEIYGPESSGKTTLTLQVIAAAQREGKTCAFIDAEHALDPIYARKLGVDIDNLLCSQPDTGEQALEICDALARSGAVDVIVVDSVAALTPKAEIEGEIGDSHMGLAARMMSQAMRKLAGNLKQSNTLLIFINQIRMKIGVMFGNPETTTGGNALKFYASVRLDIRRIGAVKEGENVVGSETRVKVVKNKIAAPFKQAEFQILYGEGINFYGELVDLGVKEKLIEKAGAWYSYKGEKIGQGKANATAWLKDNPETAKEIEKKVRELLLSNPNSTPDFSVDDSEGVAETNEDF
Assay: EMSA
Conditions: 5'-acridine; C5-propynyl-dU, 5-methyl-dC, 7-deaza-dG in TFO; triethyleneglycol spacer between TFO and adapter; with Y0Gorec plasmid, 15 uM RecA, ATPgammaS, ADP, 12.5 mM MgCl2; 22% without RecA; 100% of complex associated with plasmid in RecA reaction

## NNNNNTNTNNNGNGGNGCGCGTGGCCAGC [TFO1-S + R (GOREC with homologous 40-nt R)]
  activity (% joint molecules in 5 min): 80
